For one series, the target named is IgG1 Fc (Homo sapiens (Human), UniProt P01857 104-328, glycosylated). As to the kind of experiment: capillary electrophoresis; 20 mM Tris pH 7.4, 10 mM NaCl, 1 mM MgCl2, 0.05% Tween 20, 37 C. The note with it: tags: His; chain copies: 2; label: 5'-FAM.
For series [1], the target named is TROP2 FcHis (human TROP2 fused to IgG1 FcHis) (human, UniProt P09758 27-274+P01857:100-328, internal_change). As to the kind of experiment: capillary electrophoresis; 10 nM DNA, 4-fold protein; 20 mM Tris-HCl pH 7.4, 10 mM NaCl, 1 mM MgCl2, 0.05% Tween 20; 10 nM aptamer, 37 °C 30 min, then held at 15 °C; CE running buffer 100 mM sodium borate pH 8.35. Particulars: protein: commercial; IgG1 Fc-His fusion; chain copies: 2; label: 5' FAM.

Series [2] has as its target FcHis (human IgG1 Fc-His, counter-target for specificity) (human, UniProt P01857 100-328). Described as above. The note with it: protein: commercial; tags: His; chain copies: 2; label: 5' FAM.

What is called Kd is the equilibrium constant for the complex coming apart.

TROP2 FcHis (human TROP2 fused to IgG1 FcHis), sequence (P09758 other isoform, or with tags, fused parts or gaps): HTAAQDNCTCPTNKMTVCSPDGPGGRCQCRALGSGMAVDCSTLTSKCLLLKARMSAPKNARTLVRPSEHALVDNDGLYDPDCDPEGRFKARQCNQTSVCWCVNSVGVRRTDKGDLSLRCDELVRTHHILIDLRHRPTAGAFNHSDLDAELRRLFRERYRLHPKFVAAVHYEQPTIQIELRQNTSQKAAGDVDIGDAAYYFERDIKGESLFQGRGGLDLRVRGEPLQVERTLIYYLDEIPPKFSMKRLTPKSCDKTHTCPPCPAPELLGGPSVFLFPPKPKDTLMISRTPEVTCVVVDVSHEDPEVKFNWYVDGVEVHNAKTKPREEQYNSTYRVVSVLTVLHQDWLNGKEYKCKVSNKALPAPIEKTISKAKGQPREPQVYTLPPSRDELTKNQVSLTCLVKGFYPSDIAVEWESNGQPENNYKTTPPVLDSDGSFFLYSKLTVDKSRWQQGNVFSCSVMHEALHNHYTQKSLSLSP

B1: Tac-A5 (ssDNA)
DNA: TCGCCTTGCCGGATCGCAGATCTGTTCCGTGTTCGTTCCTTTCCTTGTTGTGGTCCGTGAGCCTGACACC
modifications: every T at positions 21-70 is 5-[(3-indolyl)propionamide-N-allyl]-dU (Utrp); T in 5' primer region (1-20) natural
Regarding B1, the equilibrium dissociation constant (Kd) with IgG1 Fc is more than 1 µM.

B2: ssDNA_neg (ssDNA)
DNA: TCGCCTTGCCGGATCGCAGACTTCCCCCCACTCCACTTCTTACTCCTTTCTGGTCCGTGAGCCTGACACC
With B2, the binding result in series [1] and in series [2] was “no binding” throughout.

Values taken from paper PMC8232673, “Hybrid-Type SELEX for the Selection of Artificial Nucleic Acid Aptamers Exhibiting Cell Internalization Activity”.
